Experimental data as given in patent US20240116985A1 (published 2024).
Starred links: 1 amine or outer side, 2 acyl side, 3 side chain; linkers in the order of their positions; H or OH if unused. Positions of bridges follow the written chain, without caps; N, C: chain ends. Non-standard residues stand in square brackets, D forms with d. Primed or numbered codes have the meaning given here. *: point of attachment. PyrS2″ = (S)-3-amino-1-((pent-4-en-1-yloxy)carbonyl)pyrrolidine-3-carboxylic acid (stapling residue), C=CCCCOC(=O)N1CC[C@@](N[*:1])(C(=O)[*:2])C1; B5(16) = 2-amino-2-(pent-4-en-1-yl)hept-6-enoic acid = 2,2-bis(4-pentenyl)glycine (stitching residue), C=CCCCC(CCCC=C)(N[*:1])C(=O)[*:2]; B5(4) = 2,2-bis(4-pentenyl)glycine = 2-amino-2-(pent-4-en-1-yl)hept-6-enoic acid (stitching residue), C=CCCCC(CCCC=C)(N[*:1])C(=O)[*:2]; TfeGA = (S)-2-amino-3-((carboxymethyl)(2,2,2-trifluoroethyl)amino)propanoic acid, O=C([C@H](CN(CC(=O)[*:3])CC(F)(F)F)N[*:1])[*:2]; PyrS2 = (S)-3-amino-1-((pent-4-en-1-yloxy)carbonyl)pyrrolidine-3-carboxylic acid, C=CCCCOC(=O)N1CC[C@@](N[*:1])(C(=O)[*:2])C1; 4MePipBz = 4-((4-methylpiperazin-1-yl)methyl)benzoyl on Lys side chain, CN1CCN(Cc2ccc(C(=O)*)cc2)CC1; MeBipipAc = 1'-methyl-[1,4'-bipiperidine]-4-carbonyl on Lys side chain, CN1CCC(N2CCC(C(=O)*)CC2)CC1; B5(3) = 2,2-bis(4-pentenyl)glycine (stitching residue), C=CCCCC(CCCC=C)(N[*:1])C(=O)[*:2]; MeMorphBz = 4-(morpholinomethyl)benzoyl on Lys side chain, O=C(c1ccc(CN2CCOCC2)cc1)*; B5 = 2-amino-2-(pent-4-en-1-yl)hept-6-enoic acid, C=CCCCC(CCCC=C)(N[*:1])C(=O)[*:2]; 22PhPr = 2,2-diphenylpropanoyl on Lys side chain, CC(C(=O)*)(c1ccccc1)c1ccccc1; Acetyl(4-Me-piperazin-1-yl) = CN1CCN(CC(=O)*)CC1; Phe(3-CONH2) = NC(=O)c1cccc(C[C@H](N)C(=O)O)c1; Phe(2-CF3) = N[C@@H](Cc1ccccc1C(F)(F)F)C(=O)O; Phe(2-CONH2) = NC(=O)c1ccccc1C[C@H](N)C(=O)O; Ala(cPent) = N[C@@H](CC1CCCC1)C(=O)O; Bta = N[C@@H](Cc1csc2ccccc12)C(=O)O; αAllylPro = C=CC[C@@]1(C(=O)O)CCCN1; Morpholinoacetyl = O=C(CN1CCOCC1)*; tBuAla = CC(C)(C)C[C@H](N)C(=O)O; 3Thi = N[C@@H](Cc1ccsc1)C(=O)O

T1: B-cat-Halo (UniProt P35222 1-781)
T1 sequence (looked up): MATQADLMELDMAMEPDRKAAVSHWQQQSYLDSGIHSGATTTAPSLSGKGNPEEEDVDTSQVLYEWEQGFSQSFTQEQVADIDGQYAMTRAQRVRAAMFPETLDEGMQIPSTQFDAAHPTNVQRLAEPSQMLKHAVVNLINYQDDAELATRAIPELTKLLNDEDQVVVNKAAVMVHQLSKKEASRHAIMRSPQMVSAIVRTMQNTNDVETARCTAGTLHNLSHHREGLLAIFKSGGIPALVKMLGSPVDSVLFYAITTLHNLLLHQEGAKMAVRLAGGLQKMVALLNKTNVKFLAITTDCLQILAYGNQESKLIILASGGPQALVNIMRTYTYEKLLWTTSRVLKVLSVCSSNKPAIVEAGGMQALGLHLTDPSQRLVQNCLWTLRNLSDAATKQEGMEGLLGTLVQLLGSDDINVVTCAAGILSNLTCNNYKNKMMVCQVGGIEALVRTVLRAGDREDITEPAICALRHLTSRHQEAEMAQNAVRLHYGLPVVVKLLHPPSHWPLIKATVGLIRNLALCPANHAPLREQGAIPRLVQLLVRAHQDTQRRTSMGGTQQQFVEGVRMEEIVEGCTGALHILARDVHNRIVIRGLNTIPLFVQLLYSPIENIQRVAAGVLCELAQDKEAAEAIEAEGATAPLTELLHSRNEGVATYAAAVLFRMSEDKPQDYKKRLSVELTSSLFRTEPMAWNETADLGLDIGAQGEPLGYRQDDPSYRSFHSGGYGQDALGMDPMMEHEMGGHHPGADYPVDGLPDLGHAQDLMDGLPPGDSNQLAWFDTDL

T2: B-cat-Halo (beta-catenin HaloTag NanoBRET construct expressed in HEK293 cells) (UniProt P35222 1-781)
T2 sequence (looked up): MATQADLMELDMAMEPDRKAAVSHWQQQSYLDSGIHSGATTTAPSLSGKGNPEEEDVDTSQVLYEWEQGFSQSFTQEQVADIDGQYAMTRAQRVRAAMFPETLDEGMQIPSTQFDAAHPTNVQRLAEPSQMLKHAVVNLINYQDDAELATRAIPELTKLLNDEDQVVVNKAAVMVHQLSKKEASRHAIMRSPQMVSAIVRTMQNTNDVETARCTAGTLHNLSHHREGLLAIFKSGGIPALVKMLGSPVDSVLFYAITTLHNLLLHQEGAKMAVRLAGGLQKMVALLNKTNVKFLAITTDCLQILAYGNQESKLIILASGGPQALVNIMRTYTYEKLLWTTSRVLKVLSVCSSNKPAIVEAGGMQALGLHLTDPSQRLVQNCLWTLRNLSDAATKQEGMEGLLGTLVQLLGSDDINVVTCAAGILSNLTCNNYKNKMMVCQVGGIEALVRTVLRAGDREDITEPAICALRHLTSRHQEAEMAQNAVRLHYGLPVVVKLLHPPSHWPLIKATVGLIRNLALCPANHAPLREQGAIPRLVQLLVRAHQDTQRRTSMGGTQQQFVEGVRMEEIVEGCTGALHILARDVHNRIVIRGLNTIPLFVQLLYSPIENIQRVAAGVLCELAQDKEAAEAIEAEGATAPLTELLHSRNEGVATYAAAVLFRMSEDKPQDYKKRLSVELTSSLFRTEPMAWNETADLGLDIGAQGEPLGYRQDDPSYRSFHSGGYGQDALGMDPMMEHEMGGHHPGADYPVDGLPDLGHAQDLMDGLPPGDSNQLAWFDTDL


What was measured:
[1] = target: T1, B-cat-Halo; test: cell-based or functional assay
[2] = target: T2, B-cat-Halo (beta-catenin HaloTag …); test: cell-based or functional assay

| Binder | NanoBRET Abs IC50 [1] [µM] | NanoBRET Abs IC50 [2] [µM] |
| --- | --- | --- |
| Ac-[αAllylPro]D[tBuAla][B5(4)]D[TfeGA]AAFL[PyrS2″][3Thi][Bta][Phe(2-CONH2)]-NH2 (staple 1-4, 4-11) [I-1707] | 6.1 |  |
| Ac-[αAllylPro]D[tBuAla][B5(4)]D[TfeGA]AAFL[PyrS2″][3Thi][Bta]N-NH2 (staple 1-4, 4-11; also: -CH=CH- in each staple reduced to -CH2-CH2-) [I-1715] | 38.4 |  |
| Ac-[αAllylPro]D[tBuAla][B5(4)]D[TfeGA]AAFL[PyrS2″]F[Bta]Q-NH2 (staple 1-4, 4-11; also: -CH=CH- in each staple reduced to -CH2-CH2-) [I-1711] | 33.3 |  |
| Ac-[αAllylPro]D[tBuAla][B5(3)]DDAAFN[PyrS2″][3Thi][Bta]QK(22PhPr)-NH2 (staple 1-4, 4-11) [I-904] |  | 20 |
| Ac-[αAllylPro]D[tBuAla][B5(4)]D[TfeGA]AAFL[PyrS2″][Ala(cPent)][Bta]Q-NH2 (staple 1-4, 4-11; also: -CH=CH- in each staple reduced to -CH2-CH2-) [I-1713] | > 20 |  |
| Ac-[αAllylPro]D[tBuAla][B5(3)]DDAAFN[PyrS2″][3Thi][Bta]QK(Morpholinoacetyl)-NH2 (staple 1-4, 4-11) [I-905] |  | 31.6 |
| Ac-[αAllylPro]D[tBuAla][B5(3)]DDAAFN[PyrS2″][3Thi][Bta]QK(4MePipBz)-NH2 (staple 1-4, 4-11) [I-908] |  | 26 |
| Ac-[αAllylPro]D[tBuAla][B5(16)]D[TfeGA]AAFL[PyrS2″][Phe(2-CF3)][Bta]Q-NH2 (staple 1-4, 4-11) [I-1704] | 5.3 |  |
| Ac-[αAllylPro]D[tBuAla][B5(4)]D[TfeGA]AAFL[PyrS2″][3Thi][Bta][Phe(3-CONH2)]-NH2 (staple 1-4, 4-11) [I-1708] | 11.9 |  |
| Ac-[αAllylPro]D[tBuAla][B5(16)]D[TfeGA]AAFL[PyrS2″][3Thi][Bta]N-NH2 (staple 1-4, 4-11) [I-1705] | 2.9 |  |
| Ac-[αAllylPro]D[tBuAla][B5]D[TfeGA]AAFL[PyrS2][Ala(cPent)][Bta]Q-NH2 (staple 1-4, 4-11) [I-1703] | 6.6 |  |
| Ac-[αAllylPro]D[tBuAla][B5(4)]D[TfeGA]AAFL[PyrS2″][Phe(2-CF3)][Bta]Q-NH2 (staple 1-4, 4-11; also: -CH=CH- in each staple reduced to -CH2-CH2-) [I-1714] | 28.6 |  |
| Ac-[αAllylPro]D[tBuAla][B5(3)]DDAAFN[PyrS2″][3Thi][Bta]QK(Acetyl(4-Me-piperazin-1-yl))-NH2 (staple 1-4, 4-11) [I-906] |  | 26.5 |
| Ac-[αAllylPro]D[tBuAla][B5(3)]DDAAFN[PyrS2″][3Thi][Bta]QK(MeBipipAc)-NH2 (staple 1-4, 4-11) [I-907] |  | 27.8 |
| Ac-[αAllylPro]D[tBuAla][B5(3)]DDAAFN[PyrS2″][3Thi][Bta]QK(MeMorphBz)-NH2 (staple 1-4, 4-11) [I-909] |  | 28.4 |
